Tests used:
[1] = molecular target: His-tagged Hsp20 wild type (UniProt O14558); experiment: peptide array overlay (IB: His), spot densitometry; conditions: typical of n = 3; parent: est. 100; read off a plot
[2] = molecular target: Aβ1–42 labelled at the N-terminus with HiLyte Fluor 555 (Aβ555) (human) (UniProt P05067)

percent of parent (% Control (WT)) [1] | fold decrease in efficiency in disrupting the formation of Aβ555 fibrils and globular structures (self-quenching), against full-length S16D [2] [fold] | Substance
77 | – | Aβ1–42 25mer peptide 1 (D1–G25; array spot) A2
110 | – | Aβ1–42 25mer peptide 1 (D1–G25; array spot) A21
– | 2 | Hsp20 N-terminal 25-mer peptide, S16D variant (in solution)
